The source of these data is article doi:10.1101/2021.08.10.455837.

The assay deals with human HBEGF (human) (UniProt Q99075).
Chain of UniProt Q99075 (Q99075 20-208): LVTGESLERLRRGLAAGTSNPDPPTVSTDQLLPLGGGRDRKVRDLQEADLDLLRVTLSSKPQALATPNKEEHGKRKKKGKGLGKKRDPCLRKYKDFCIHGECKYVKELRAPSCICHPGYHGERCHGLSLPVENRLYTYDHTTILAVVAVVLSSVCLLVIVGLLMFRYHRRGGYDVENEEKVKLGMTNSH

For “Diphtheria toxin (from UniProt P00588 33-567) (natural protein)”, the EC50 of toxicity (dose titration) on WT ARN8 cells (basal levels of HBEGF) was 26 pM.
